According to patent US20120027757A1:

Columns and labels:
[1] = target: IR (insulin receptor) expressed on Sf9 insect cells infected with baculovirus (UniProt P06213); assay: flow cytometry on Sf9 insect cells expressing IR
[2] = target: IGF-IR expressed on Sf9 insect cells infected with baculovirus (UniProt P08069); assay: flow cytometry on Sf9 insect cells expressing IGF-IR

With Anti-IGF-IR (αIR3) (antibody) the MFI (Mean fluorescence intensity) [1] was 32 and the MFI (Mean fluorescence intensity) [2] was 35.
